Target: T1, FcRn of the Lumit FcRn Binding Immunoassay (Promega) (UniProt P55899 24-297; P61769 21-119, limits assumed)
T1 construct: Bought kit reagent ('split FcRn/Tracer'); also called split FcRn
Assay: Lumit FcRn Binding Immunoassay (Promega), serial dilution of EVs competing with the kit's Tracer for FcRn, luminescence as fraction of max signal
Description: A Lumit™ FcRn Binding Immunoassay (Promega) assay was performed with purified EVs described in Example 1 and native Hek293 EVs. […] Detection reagent was added and luminescence was detected on a plate reader.

IC50 (read off the curve): ~0.2 nM
B1: targeting monobody-linker1-modified monomeric Fc-linker2-EphB2 scaffold-linker3-turboluc fusion protein, displayed on purified EVs (Fc fusion)
chain: VSDVPRDLEVVAATPTSLLISWYYPFCAFYYRITYGETGGNSPVQEFTVPRSPDTATISGLKPGVDYTITVYAVTCLGSYSRPISINYRTGGGGSGGGGSGGAPEAAGGPSVFLFPPKPKDTLMISRTPEVTCVVVDVSHEDPEVKFNWYVDGVEVHNAKTKPREEQYNSTYRVVSVLTVLHQDWLNGKEYKCKVSNKALGAPIEKTISKAKGQPREPQVYTKPPSRDELTKNQVSLSCLVKGFYPSDIAVEWESNGQPENNYKTTVPVLDSDGSFRLASYLTVDKSRWQQGNVFSCSVMHEALHNHYTQKSLSLSPGGGSGGGSGGGSGGGSRKCPRIIQNGAIFQETLSGAESTSLVAARGSCIANAEEVDVPIKLYCNGDGEWLVPIGRCMCKAGFEAVENGTVCRGCPSGTFKANQGDEACTHCPINSRTTSEGATNCVCRNGYYRADLDPLDMPCTTIPSAPQAVISSVNETSLMLEWTPPRDSGGREDAVYNIICKSCGSGRGACTRCGDNVQYAPRQLGLTEPRIYASDLLAHTQYTFEIQAVNGVTDQSPFSPQFASVNITTNQAAPSAVSIMHQVSRTVDSITLSWSQPDQPNGVILDYELQYYEKELSEYNATAIKSPTNTVTVQGLKAGAIYVFQVRARTVAGYGRYSGKMYFQTMTEAEYQTEIQEKLPLIIGSSAAGLVFLIAVVVISIVCNRRGFERADSEYTDKLQHYTSGHMTPGMKIYIDPFTYEDPNEAVREFAKEIDISCVKIEQVIGAGEFGEVCSGHLKLPGKREIFVAIKTLKSGYTEKQRRDFLSEASIMGQFDHPNVIHLEGVVTKSTPVMIITEFMENGSLDSFLRQNDGQFTVIQLVGMLRGIAAGMKYLADMNYVHRDLAARNILVNSNLVCKVSDFGLSRFLEDDTSDPTYTSALGGKIPIRWTAPEAIQYRKFTSASDVWSYGIVMWEVMSFGERPYWDMTNQDVINAIEQDYRLPPPMDCPSALHQLMLDCWQKDRNHRPKFGQIVNTLDKMIRNPNSLKAMAPLSSGINLPLGGGEAEAERGKLPGKKLPLEVLIELEANARKAGCTRGCLICLSKIKCTAKMKKYIPGRCADYGGDKKTGQAGIVGAIVDIPEISGFKEMEPMEQFIAQVDRCADCTTGCLKGLANVKCSDLLKKWLPGRCATFADKIQSEVDNIKGLAGD
notes: also called EVs expressing the modified Fc domain

From patent US20240226321A1 (ANJARIUM BIOSCIENCES, published 2024)
